Test results: patent US10494657B2, “In vitro production of cyclic peptides” (The University Court of the University of Aberdeen, priority 2012, dated 2019)

What was measured:
[…] [1] = rates reported to date; cited from earlier work
PatE2/PatE2K = test: C-terminal cleavage and macrocyclization of heterocyclized, N-terminally cleaved PatE2/PatE2K; type: biochemical; conditions: 100 μM substrate, 20 μM PatGmac, 24 hours at 37° C., 20 mM Bicine pH 8.1, 500 mM NaCl, 5% DMSO
Description: The final stage in patellamide production is C-terminal cleavage and macrocyclization. This step is catalyzed by the PatGmac domain. In order to macrocyclize our single cassette we incubated 100 μM heterocyclized (with either PatD or TruD) and N-terminally cleaved PatE2/PatE2K with 20 μM PatGmac for 24 hours at 37° C. in 20 mM Bicine pH 8.1, 500 mM NaCl, 5% DMSO to complete the reaction. Completeness of the reaction was confirmed by LCT-ESI MS (FIG. 16). […] PatGmac is also highly expressed in E. coli with between 200 and 250 mg purified protein obtained per liter of culture. The final macrocycles were purified by HPLC on a C18 peptide column. PatD and TruD heterocyclised macrocycles were subjected to HRMS and their structures confirmed by fragmentation (see FIGS. 19 to 21; Table 3). NMR analysis was carried out on TruD and PatD heterocyclised macrocycles, as shown in FIGS. 20 and 21) (Tables 7 and 8).

[…] [2] = Macrocyclization reaction, final product ratios by LC-ESI MS ion counts; type: biochemical
Description: For macrocyclization reactions comparing final product ratios after substrate depletion, 100 μM peptide (VGAGIGFPAYDG) (SEQ ID NO: 68) was incubated with 50 μM enzyme in 150 mM NaCl, 10 mM HEPES pH 8, 1 mM TCEP for 120 h at 37° C. Samples were analyzed by ESI or MALDI MS (LCT, Micromass or 4800 MALDI TOF/TOF Analyser, ABSciex).
LC-MS was performed using a Phenomenex Sunfire C18 column (4.6 mm×150 mm). Solvent A was H2O containing 0.1% formic acid and solvent B was MeOH containing 0.1% formic acid. Gradient: 0-2 min 10% B; 2-22 min 10% B to 100% B; 22-27 min 100% B; 27-30 min 100% B to 10% B. High resolution mass spectral data were obtained from a Thermo Instruments MS system (LTQ XL/LTQ Orbitrap Discovery) coupled to a Thermo Instruments HPLC system (Accela PDA detector, Accela PDA autosampler and Accela Pump). The following conditions were used: capillary voltage 45 V, capillary temperature 320° C., auxiliary gas flow rate 10-20 arbitrary units, sheath gas flow rate 40-50 arbitrary units, spray voltage 4.5 kV, mass range 100-2000 amu (maximum resolution 30000).
The peptide VGAGIGFPAYDG (SEQ ID NO: 68) was used as a substrate for PatGmac in biochemical assays (FIG. 4C[[c]]). The ratio of macrocyclized to linear product using this substrate peptide was determined by ion counts obtained from liquid chromatography-electrospray ionization mass spectrometry (LC-ESI MS).

[…] [3] = Macrocyclization reaction rate in different buffers (LC-MS); type: biochemical
Description: (§1) For other macrocyclization reactions, 100 μM peptide (e.g. VGAGIGFPAYDG (SEQ ID NO: 68), VGAGIGFPAYRG (SEQ ID NO: 69), or GVAGIGFPAYRG (SEQ ID NO: 84)) was incubated with 20 μM enzyme in a range of buffers for 24 h at 37° C. (see FIGS. 1 to 3).
PatGmac is a slow enzyme; turnover rates reported to date are ˜1 per day (Lee, J., McIntosh, J., Hathaway, B. J. & Schmidt, E. W., 2009; McIntosh, J. A. et al., 2010). […] Adding DMSO gave a small increase in rate but shifted the optimum pH, thus a buffer containing 500 mM NaCl and 5% DMSO at pH 8 gave a reaction rate over 50 times greater (FIG. 1C). Under these conditions, about 7% linearized VGAGIGFP (SEQ ID NO: 70) byproduct was observed which can be separated from cyclo[VGAGIGFP] (SEQ ID NO: 70) by HPLC.

[…] [4] = Macrocyclization of substrate with modified recognition sequence (Asp to Arg); type: biochemical
Description: as §1
PatGmac K598D produced cyclo[VGAGIGFP] with only 8% linear product, at a rate over an order of magnitude faster than wild-type PatGmac with VGAGIGFPAYDG (SEQ ID NO: 68) (FIGS. 2 and 3).

[5] = 100 μM peptide, 50 μM enzyme, 120 h at 37° C.
[6] = 500 mM NaCl and 5% DMSO at pH 8

B1: PatGmac: macrocyclase domain of PatG, residues 492-851 (protein)
chain: GEDEIESAGVSASEVESSATKQKVALHPHDLDERIPGLADLHNQTLGDPQITIVIIDGDPDYTLSCFEGAEVSKVFPYWHEPAEPITPEDYAAFQSIRDQGLKGKEKEEALEAVIPDTKDRIVLNDHACHVTSTIVGQEHSPVFGIAPNCRVINMPQDAVIRGNYDDVMSPLNLARAIDLALELGANIIHCAFCRPTQTSEGEEILVQAIKKCQDNNVLIVSPTGNNSNESWCLPAVLPGTLAVGAAKVDGTPCHFSNWGGNNTKEGILAPGEEILGAQPCTEEPVRLTGTSMAAPVMTGISALLMSLQVQQGKPVDAEAVRTALLKTAIPCDPEVVEEPERCLRGFVNIPGAMKVLFGQ
For B1, the turnover rate ([…] [1]) is listed as roughly 1 per day, the “macrocyclized (ion count analysis)” value (PatE2/PatE2K) is listed as 100% and the “product formed (macrocyclized vs linear)” value ([…] [2]) is listed as “only macrocyclized product”. For the same molecule, the “Cyclic ion count (%) (M + H = 699)” value ([…] [2]; [5]) was 100%, the “Linear ion count (%) (M + H = 717)” value ([…] [2]; [5]) was 0% and the “Unprocessed ion count (%) (M + H = 1123)” value ([…] [2]; [5]) was 0%. The “linearized VGAGIGFP byproduct” value ([…] [3]; [6]) was “about 7%”, the reaction rate increase ([…] [3]; [6]) was “over 50 times” and the “rate change on increasing sodium chloride” value ([…] [3]; NaCl from 150 mM to 500 mM) was “greater than an order of magnitude improvement in rate”. The “rate change on increasing pH” value ([…] [3]; pH from 8 to 9, 500 mM NaCl) was “further tripled the rate”, the “ratio of macrocyclized and linear products with VGAGIGFPAYRG” value ([…] [4]) was “equal amounts of macrocyclized and linear products” and the “reaction rate with VGAGIGFPAYRG” value ([…] [4]) was “reacted extremely slowly”.
